# In article PMC8373123:
# Biological target: human NPC1L1 (Niemann-Pick C1-like 1), wild type, C-terminal Flag tag (human) (UniProt Q9UHC9)
# Experiment: cryo-EM structure
substance,measurement,value
"human NPC1L1 (Niemann-Pick C1-like 1), wild type, C-terminal Flag tag (from UniProt Q9UHC9-2 22-1332) (natural protein)",stoichiometry N,2
